Literature values in patent US6440936B2, “Anti-protozoan methods and materials” (Xoma Corporation, priority 1994, dated 2002).

Assays:
T. gondii = conditions: 0.25 μg/ml in cyst medium
[1] = system: Staphylococcus aureus (four strains), Staphylococcus epidermidis, Streptococcus faecalis, Bacillus subtilis, Micrococcus lysodeikticus, Listeria monocylogenes; conditions: 10^−6 M or 160 μg/ml; pH 7.0 or 5.5
[2] = system: Candida albicans and Candida parapsilosis; conditions: 10^−6 M; Ph 7.0 or 5.5
[3] = system: human, rabbit and sheep red blood cells and several human tumor cell lines

Molecule	anti-T. gondii effect (T. gondii)	toxic effect on gram-positive organisms [1]	toxic effect on fungi [2]	toxicity to higher eukaryotic cells [3]
C[C@@H]1[C@H](O)[C@@H](C)/C=C/C=C/C=C/C=C/C=C/C=C/C=C/[C@H](O[C@@H]2O[C@H](C)[C@@H](O)[C@H](N)[C@@H]2O)C[C@@H]2O[C@](O)(C[C@@H](O)C[C@@H](O)[C@H](O)CC[C@@H](O)C[C@@H](O)CC(=O)O[C@H]1C)C[C@H](O)[C@H]2C(=O)O [Amphotericin B]	does not have a significant anti-T. gondii effect	–	–	–
BPI: protein isolated from the granules of mammalian polymorphonuclear neutrophils; human BPI approximately 55 kD (protein, UniProt P17213 32-487, looked up) Bactericidal …: VNPGVVVRISQKGLDYASQQGTAALQKELKRIKIPDYSDSFKIKHLGKGHYSFYSMDIREFQLPSSQISMVPNVGLKFSISNANIKISGKWKAQKRFLKMSGNFDLSIEGMSISADLKLGSNPTSGKPTITCSSCSSHINSVHVHISKSKVGWLIQLFHKKIESALRNKMNSQVCEKVTNSVSSELQPYFQTLPVMTKIDSVAGINYGLVAPPATTAETLDVQMKGEFYSENHHNPPPFAPPVMEFPAAHDRMVYLGLSDYFFNTAGLVYQEAGVLKMTLRDDMIPKESKFRLTTKFFGTFLPEVAKKFPNMKIQIHVSASTPPHLSVQPTGLTFYPAVDVQAFAVLPNSSLASLFLIGMHTTGSMEVSAESNRLVGELKLDRLLLELKHSNIGPFPVELLQDIMNYIVPILVLPRVNEKLQKGFPLPTPARVQLYNVVLQPHQNFLLFGADVVYK	–	no toxic effect	no toxic effect	non-toxic
